Literature values as cited in paper PMC2757091.

Key:
[1] = target: Cerberus (UniProt O95813)
[2] = target: Chordin (UniProt Q9H2X0)
[3] = target: Noggin (UniProt Q13253)
Chain of Noggin (Q13253 28-232): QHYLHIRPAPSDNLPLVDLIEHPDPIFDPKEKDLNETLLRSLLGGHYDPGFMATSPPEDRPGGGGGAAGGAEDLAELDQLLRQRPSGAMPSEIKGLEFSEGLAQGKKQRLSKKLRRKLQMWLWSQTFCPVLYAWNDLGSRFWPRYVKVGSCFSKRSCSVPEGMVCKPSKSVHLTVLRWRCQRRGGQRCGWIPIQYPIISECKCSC

Chain of BMP4 (P12644 293-408): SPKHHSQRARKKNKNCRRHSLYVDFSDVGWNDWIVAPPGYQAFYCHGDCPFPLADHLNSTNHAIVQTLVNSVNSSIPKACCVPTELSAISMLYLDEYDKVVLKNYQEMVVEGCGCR
Chain of Cerberus (O95813 18-267): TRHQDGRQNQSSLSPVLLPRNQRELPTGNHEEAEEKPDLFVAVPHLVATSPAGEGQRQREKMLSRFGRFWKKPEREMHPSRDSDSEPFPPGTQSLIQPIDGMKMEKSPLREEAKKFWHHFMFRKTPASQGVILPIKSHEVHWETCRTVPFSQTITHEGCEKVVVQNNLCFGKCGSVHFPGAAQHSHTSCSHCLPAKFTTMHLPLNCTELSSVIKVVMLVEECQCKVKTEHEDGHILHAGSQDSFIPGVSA
Chain of Chordin (Q9H2X0 27-955): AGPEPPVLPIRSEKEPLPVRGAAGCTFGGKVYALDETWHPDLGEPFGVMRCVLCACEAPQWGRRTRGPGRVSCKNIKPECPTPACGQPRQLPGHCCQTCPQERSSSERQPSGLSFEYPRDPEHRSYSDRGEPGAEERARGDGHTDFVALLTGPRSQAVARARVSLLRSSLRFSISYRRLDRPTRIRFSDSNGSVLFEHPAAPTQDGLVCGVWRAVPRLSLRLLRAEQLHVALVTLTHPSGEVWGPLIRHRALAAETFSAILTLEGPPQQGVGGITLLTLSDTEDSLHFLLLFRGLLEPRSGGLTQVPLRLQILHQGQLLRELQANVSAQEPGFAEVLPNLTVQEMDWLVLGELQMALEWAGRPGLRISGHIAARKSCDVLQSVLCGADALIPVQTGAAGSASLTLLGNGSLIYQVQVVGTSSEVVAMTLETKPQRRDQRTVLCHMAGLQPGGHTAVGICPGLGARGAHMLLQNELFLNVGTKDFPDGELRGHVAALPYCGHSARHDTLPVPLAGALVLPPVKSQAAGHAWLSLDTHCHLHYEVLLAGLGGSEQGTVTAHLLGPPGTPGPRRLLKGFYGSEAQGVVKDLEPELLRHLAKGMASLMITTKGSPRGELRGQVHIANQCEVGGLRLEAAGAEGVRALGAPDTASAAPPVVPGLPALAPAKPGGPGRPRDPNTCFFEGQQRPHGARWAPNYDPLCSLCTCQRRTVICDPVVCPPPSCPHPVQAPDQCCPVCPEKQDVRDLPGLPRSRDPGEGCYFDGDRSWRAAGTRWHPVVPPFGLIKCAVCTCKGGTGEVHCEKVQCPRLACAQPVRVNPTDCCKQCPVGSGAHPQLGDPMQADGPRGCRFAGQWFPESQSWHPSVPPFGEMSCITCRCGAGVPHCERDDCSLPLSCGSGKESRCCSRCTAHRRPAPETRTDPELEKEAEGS

Substance: BMP4 (from UniProt P12644)
- Kd [1]: 0.6 nM
- Kd [2]: 0.2 nM
- Kd [3]: 0.02 nM
